# Bridge positions count the residues as written; N and C are the ends. Square brackets hold non-standard residues; d marks the D form. Ends that are not written are not given here.
# T1: guanylate cyclase-C (GC-C) on rat jejunum tissue (rat, UniProt P23897 23-1072)
# T1 sequence (looked up): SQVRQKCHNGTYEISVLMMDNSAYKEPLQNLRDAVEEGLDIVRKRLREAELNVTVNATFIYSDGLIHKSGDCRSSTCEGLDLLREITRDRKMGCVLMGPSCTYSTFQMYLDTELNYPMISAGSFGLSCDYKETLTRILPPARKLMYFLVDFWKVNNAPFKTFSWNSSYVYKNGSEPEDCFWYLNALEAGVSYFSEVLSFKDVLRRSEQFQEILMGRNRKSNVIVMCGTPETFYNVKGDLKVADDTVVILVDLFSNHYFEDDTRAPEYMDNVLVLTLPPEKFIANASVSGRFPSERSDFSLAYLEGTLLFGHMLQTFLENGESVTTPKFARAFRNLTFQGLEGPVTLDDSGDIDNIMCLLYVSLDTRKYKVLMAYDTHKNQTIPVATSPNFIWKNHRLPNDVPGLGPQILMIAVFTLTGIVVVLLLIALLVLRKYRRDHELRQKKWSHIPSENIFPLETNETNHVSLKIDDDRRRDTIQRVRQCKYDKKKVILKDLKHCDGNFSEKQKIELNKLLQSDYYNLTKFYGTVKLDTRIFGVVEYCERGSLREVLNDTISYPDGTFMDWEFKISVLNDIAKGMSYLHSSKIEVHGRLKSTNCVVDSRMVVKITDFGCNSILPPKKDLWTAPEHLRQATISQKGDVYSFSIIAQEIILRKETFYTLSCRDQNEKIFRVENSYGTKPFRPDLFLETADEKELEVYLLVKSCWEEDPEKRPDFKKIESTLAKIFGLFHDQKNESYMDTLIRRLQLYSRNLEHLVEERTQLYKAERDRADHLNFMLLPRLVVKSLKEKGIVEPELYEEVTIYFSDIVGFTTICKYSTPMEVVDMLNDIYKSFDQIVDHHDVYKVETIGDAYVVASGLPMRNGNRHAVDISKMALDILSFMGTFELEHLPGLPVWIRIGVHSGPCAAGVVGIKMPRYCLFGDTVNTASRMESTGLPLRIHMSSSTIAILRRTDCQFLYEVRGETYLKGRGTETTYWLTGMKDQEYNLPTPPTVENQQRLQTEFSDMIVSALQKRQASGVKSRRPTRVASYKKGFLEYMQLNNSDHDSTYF
# Key:
# [1] = biological target: guanylate cyclase-C (GC-C) on T84 cells (human, UniProt P25092 24-1073); assay: cell-based or functional assay
# [2] = biological target: T1, guanylate cyclase-C (GC-C) on rat …; assay: cell-based or functional assay
# Sequence of guanylate cyclase-C (GC-C) on T84 cells (P25092 24-1073): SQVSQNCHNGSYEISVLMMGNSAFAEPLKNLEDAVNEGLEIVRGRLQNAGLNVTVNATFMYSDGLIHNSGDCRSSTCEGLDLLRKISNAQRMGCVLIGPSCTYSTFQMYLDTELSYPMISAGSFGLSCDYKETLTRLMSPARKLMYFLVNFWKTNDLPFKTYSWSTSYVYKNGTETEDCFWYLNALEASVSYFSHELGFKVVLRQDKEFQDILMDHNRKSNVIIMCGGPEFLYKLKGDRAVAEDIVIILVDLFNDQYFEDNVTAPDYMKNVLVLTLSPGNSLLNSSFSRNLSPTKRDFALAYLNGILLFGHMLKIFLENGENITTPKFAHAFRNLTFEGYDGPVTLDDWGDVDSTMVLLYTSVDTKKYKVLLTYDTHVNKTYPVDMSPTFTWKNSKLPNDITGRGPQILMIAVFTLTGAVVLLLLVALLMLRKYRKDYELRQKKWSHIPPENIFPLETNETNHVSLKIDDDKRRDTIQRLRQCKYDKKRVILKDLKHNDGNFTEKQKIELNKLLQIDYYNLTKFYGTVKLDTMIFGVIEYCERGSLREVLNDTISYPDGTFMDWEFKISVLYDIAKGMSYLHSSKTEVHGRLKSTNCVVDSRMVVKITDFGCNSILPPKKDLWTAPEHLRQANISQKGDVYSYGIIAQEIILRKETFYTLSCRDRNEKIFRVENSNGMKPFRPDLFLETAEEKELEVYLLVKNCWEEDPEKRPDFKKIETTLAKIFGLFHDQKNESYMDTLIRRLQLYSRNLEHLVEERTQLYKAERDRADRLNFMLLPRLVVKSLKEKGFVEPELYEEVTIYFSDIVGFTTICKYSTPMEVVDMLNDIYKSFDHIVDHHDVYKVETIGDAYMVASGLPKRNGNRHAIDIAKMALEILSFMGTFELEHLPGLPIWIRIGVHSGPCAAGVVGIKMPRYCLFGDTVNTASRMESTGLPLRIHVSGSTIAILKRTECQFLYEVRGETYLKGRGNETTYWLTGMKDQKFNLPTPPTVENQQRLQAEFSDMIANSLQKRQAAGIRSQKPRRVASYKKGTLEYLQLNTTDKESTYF
binder,measurement,setting,value
"[dN]DECELCVNVACTGC[dL] (disulfide 4-12, 7-15) [SP-333]","short-circuit current (Isc, chloride current) across T84 cells monolayer, Ussing chamber; EC50",[1],169 nM
same,"short-circuit current (Isc, chloride current) across rat jejunum tissue, Ussing chamber; EC50",[2],299 nM

# Source: US20200330548A1 (SYNERGY PHARMACEUTICALS, published 2020)
